Laboratory results: patent US20090029376

Tests used:
Assay in all cases: cleavage_in_vitro
[1] = target: T1, BamHI (Bacillus amyloliquefaciens) (UniProt P23940); conditions: NEB4, 37 C
T1 sequence: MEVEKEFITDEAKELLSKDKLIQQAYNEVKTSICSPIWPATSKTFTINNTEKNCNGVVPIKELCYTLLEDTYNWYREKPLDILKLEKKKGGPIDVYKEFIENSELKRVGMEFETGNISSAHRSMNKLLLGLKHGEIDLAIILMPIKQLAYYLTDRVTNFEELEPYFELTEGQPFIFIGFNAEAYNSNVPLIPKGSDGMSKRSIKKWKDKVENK

[2] = test system: T2, BspQI (Bacillus sphaericus); conditions: NEB4, 50 C
T2 sequence: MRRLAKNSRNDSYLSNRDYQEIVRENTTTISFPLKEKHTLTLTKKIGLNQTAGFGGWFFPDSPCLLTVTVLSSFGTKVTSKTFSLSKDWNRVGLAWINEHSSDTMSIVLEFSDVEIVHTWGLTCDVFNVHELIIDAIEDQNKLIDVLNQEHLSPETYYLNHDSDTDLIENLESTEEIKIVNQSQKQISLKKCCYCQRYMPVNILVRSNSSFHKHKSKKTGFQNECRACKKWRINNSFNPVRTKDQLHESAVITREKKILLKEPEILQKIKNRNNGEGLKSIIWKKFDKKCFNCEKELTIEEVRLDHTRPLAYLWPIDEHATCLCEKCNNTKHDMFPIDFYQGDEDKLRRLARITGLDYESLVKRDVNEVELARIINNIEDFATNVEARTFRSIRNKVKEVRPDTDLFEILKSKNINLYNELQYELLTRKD

[3] = test system: T3, BstXI-HF N65A (Bacillus stearothermophilus); conditions: NEB4, 55 C
T3 sequence: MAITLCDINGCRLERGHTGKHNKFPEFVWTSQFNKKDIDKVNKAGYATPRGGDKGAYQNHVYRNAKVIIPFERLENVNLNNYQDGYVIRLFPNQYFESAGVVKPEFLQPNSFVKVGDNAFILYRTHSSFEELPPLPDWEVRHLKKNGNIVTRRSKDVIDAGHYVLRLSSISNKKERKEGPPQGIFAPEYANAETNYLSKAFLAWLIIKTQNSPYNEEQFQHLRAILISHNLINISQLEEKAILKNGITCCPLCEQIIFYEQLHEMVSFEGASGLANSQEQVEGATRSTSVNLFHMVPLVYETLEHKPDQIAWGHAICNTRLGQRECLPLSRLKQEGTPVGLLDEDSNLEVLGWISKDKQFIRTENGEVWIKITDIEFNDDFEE

[4] = target: EcoRI(K62A) K62A (Escherichia coli RY13) (UniProt P00642); conditions: NEB4, 37 C
[5] = test system: T4, SphI-HF K100A (Streptomyces phaeochromogenes); conditions: NEB4, 37 C
T4 sequence: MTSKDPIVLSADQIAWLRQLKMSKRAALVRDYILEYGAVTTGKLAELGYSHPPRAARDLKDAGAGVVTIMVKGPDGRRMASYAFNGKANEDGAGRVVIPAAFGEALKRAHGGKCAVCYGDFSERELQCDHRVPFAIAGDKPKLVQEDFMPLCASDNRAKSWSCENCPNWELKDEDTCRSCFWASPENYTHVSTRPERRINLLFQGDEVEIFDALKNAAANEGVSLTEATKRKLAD

[6] = test system: T5, SspI-HF Y98F (Sphaerotilus species); conditions: NEB4, 37 C
T5 sequence: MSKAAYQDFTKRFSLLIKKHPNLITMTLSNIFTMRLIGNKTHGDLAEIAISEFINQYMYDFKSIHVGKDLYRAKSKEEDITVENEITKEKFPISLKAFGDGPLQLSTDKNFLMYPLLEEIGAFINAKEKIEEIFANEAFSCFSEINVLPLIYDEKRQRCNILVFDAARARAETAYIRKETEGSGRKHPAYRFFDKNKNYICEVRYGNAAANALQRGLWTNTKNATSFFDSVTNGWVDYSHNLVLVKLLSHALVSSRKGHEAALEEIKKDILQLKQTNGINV

Substance: lambda phage DNA
- activity (fidelity index) [1]: 4
- activity (fidelity index) [2]: 4
- activity (fidelity index) [3]: > 250
- activity (fidelity index) [4]: 32000
- activity (fidelity index) [5]: > 2000
- activity (fidelity index) [6]: 500
